The text below walks through data of publication PMC11127010 (Proceedings of the National Academy of Sciences of the …, 2024).

This data set deals with the molecule itself. The data set can be described thus: SEC-MALS. (SEC sorts molecules by how far they enter the pores of the column.)

B1: hSTIM1-WT EF-SAM domain (aa58 to 201) (domain or fragment)
chain: SEDEKLSFEAVRNIHKLMDDDANGDVDVEESDEFLREDLNYHDPTVKHSTFHGEDKLISVEDLWKAWKSSEVYNWTVDEVVQWLITYVELPQYEETFRKLQLSGHAMPRLAVTNTTMTGTVLKMTDRSHRQKLQLKALDTVLFG
As a reminder, the stoichiometry N is the number of molecules, sites or subunits per partner or assembly. For the protein B1, the “stoichiometry N” value was no less than 2.

B2: hSTIM1 EF-SAM domain (aa58 to 201) α9-mutant (V178A-L179A) (domain or fragment)
chain: SEDEKLSFEAVRNIHKLMDDDANGDVDVEESDEFLREDLNYHDPTVKHSTFHGEDKLISVEDLWKAWKSSEVYNWTVDEVVQWLITYVELPQYEETFRKLQLSGHAMPRLAVTNTTMTGTAAKMTDRSHRQKLQLKALDTVLFG
Regarding B2, the “stoichiometry N” value was no less than 2.
